For the data set the following is noted: Homo sapiens, pH 7.4, Thermal, Phosphate 10 mM.

Hemoglobin subunit alpha wild type, P69905, sequence (P69905 whole entry): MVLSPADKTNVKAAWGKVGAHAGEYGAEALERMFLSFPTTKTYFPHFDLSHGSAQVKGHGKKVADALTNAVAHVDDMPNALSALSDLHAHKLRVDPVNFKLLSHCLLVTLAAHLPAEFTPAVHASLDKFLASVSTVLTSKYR

For “Hemoglobin subunit alpha wild type, P69905”, the Tm amounted to 71 °C (Absorbance), 73 °C (CD), 75 °C (DSC) and 58.7 °C (Optical Density).

These data come from FireProtDB (doi:10.1021/bi060525p).
